A short description of the series: yeast display, Sf9 membrane polyspecificity reagent, FACS + sequencing; frameworks hold sequencing errors. Put shortly: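 Nanobodies came from a synthetic yeast display library in Saccharomyces cerevisiae BJ5465, induced with galactose for 36–48 hours and stained for 1 hour at 4 °C with 10% biotinylated, detergent-solubilized Sf9 membrane reagent. Cells were enriched on streptavidin microbeads and then FACS-sorted, with low and high (top ~1%) gates set on anti-HA fluorescence for expression and streptavidin fluorescence for reagent binding. Each polyreactivity label reflects the gate a clone came from. Genes were amplified by colony PCR, sequenced by MiSeq 2 × 250 and filtered by CDR length.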
For the sequence “QVQLVESGGGLVQAGLTLRLSCAASGRIFYPYAMVWYRQAPGKERELVAYNTRSGGSTRYADSVKGRFTISRDNAKNTLYLQMNSLITEDTAVDYCAARTWGRRSSSWGGYYWGQGTQVTVSS”, the “polyreactivity (PSR sort gate)” value is “high polyreactivity”.
The entry for “QVQLVESGGGLVQAGRNLRLSCAASGRTFYNNVMGWYRQAPGKERELVAAIDWNDGSTYYADSVKGRFTISRDKAKNTVFLQMNSLKPEDTAVYYCAADAYGYGGDSWGQGTQVTVSS” is “low polyreactivity”.
For the sequence “QVQLVESGGGLVQAGRSHRLSCAASGIIFYKYAMGWYRQAPVKERELVAAISGTGGSTYYADSVKGRFTISRDNAKNTVYLQMNSVTAEDPAVYYCAATHYSFSWGYDYWGQGTQGTVSS”, the “polyreactivity (PSR sort gate)” value is recorded as “high polyreactivity”.
For “QVQLVESGGGLVQAGRSIRLSCAASGSTFAKYAMGWYRQAPAKERELVAAISSSGSRTYYADSVKGRFTISRDYAKNTVYLQMNILKTEDTAVYYCAALIVKPGGRVYYGGQGTQVTVSS”, the “polyreactivity (PSR sort gate)” value is “high polyreactivity”.
The entry for “QVQLVESGGGLVQAGRSLRLICAASGRTFVYYAMGWYRPAPGKERELVAAITWSGGRTYYADSVKGRFTISRDNAKNTVYLQMNSLKQEDTAVYYCNRDQWPWESGYAYNYWGQGTQVTVSS” is “low polyreactivity”; for “QVQLVESGGGLVQAGRSLRLLSAASGSSIYFNGMGWYRQAPGKERELVAAITSGGSTDYADSVKGRFTISRDNEKNSVYLLMYSLKPEDTAVYYCNVQNGDRQITGYDYWGLGTQVTVSS” it is “low polyreactivity”.
The entry for “QVQLVESGGGLVQAGRSLRLSCAASGFPFYQYAMGWYRQAPGQERELVAAITWSRGDTYYADSVKGRFTISRDNAKNTVYLQMNSLKPEDSAVFNCNADDRPRGPYYDSFDYRGDYWGQGTQVTVSS” is “low polyreactivity”; for “QVQLVESGGGLVQAGRSLRLSCAASGLIFVNYAMGWYRPAPGHERELVAASTRSGGRTYYADSVKGRFTISRDNAKNRRYLHMNSLKPVDTAVYYCAAYVRSATLRVNYGYWGQGTQVTVSS” it is “high polyreactivity”.
Regarding “QVQLVESGGGLVQAGRSLRLSCAASGLISRRNAMGWYRQAPGKQRELVAAISTGSSTNYADSVKGRFTISRDNAKNTVYLQMNSLKPEDTAVYYCASTQYWWSTLGIRDDYWGQGTQVTVSS”, the “polyreactivity (PSR sort gate)” value is recorded as “low polyreactivity”.
As for “QVQLVESGGGLVQAGRSLRLSCAASGLTFKWYAMGWYRQAPGKERELVAAISRDGSTYYADSVKGRFTISRDNAKNTVYLQMNSLKPEDTAVYDCAADIWPSSLLADEYDYWGQGTQVTVSS”, the “polyreactivity (PSR sort gate)” value is “high polyreactivity”.
With “QVQLVESGGGLVQAGRSLRLSCAASGRIFGWYAMGWYRQAPGKERELVAAIRWSGGSTYADSVKGRFTISRDNAKNTVYLQMNSLKPEDTAVYYCAALQRTGPYAGSSGYWGQGTQVTVSS” the entry was “high polyreactivity”.
With “QVQLVESGGGLVQAGRSLRLSCAASGRIFKYNAMGWYRQAPGKERELVAVITSGGSTYYADSEKGRFTISRDNAMNTDSLQKNSLKQVDTAVYYCNSPYARYYTRYSAYDYWGQGTQVTVSS” the entry was “low polyreactivity”.
The entry for “QVQLVESGGGLVQAGRSLRLSCAASGRIFRVNAMGWYRQAPRKERQLVAAISVRGGSTYYADSVKGRFTISRDNAKNTVYLQMNSLKPEDTAVYYCAAPLVYFTPRYDYWGQGTQVTVSS” is “high polyreactivity”; for “QVQLVESGGGLVQAGRSLRLSCAASGRIFYPYAMGWYRQAPGKERELVAAIRWSSGNTRYADSVKGRFTISRDNAKNTVYLQMNSLKPEDTAVYYCAADTTVFFYRYDYWGQGTQVTVSS” it is “high polyreactivity”.
As for “QVQLVESGGGLVQAGRSLRLSCAASGSIFTYYAMGWYRQGPGQERELVAAINWSGGGTYYADSLKGRFTISRDNAKINVYLQMNSLKPEDTAVYYCNALRKTYRLDYWGQGTQVTLSS”, the “polyreactivity (PSR sort gate)” value was “high polyreactivity”.
The entry for “QVQLVESGGGLVQAGRSLRLSCAASGSTFGSNAMGWYRLAPGKERELVAAITRRGGSTYYADSEKGRFTISRDNAKNTVYLQMNSLKPEDTAVYYCAAQIHPRRDYSAFDYWGQGTQVTVSS” is “low polyreactivity”.
As for “QVQLVESGGGLVQAGRSLRLSCAASGSTFRQNAMGWYRQAPGKERELVAGITFSSGSTYYADSVKGRFTISRDIAKNTLYLQMNSLKPEDTAVYYCAVRNASKNRKYYYWGQGTQVTVSS”, the “polyreactivity (PSR sort gate)” value was “high polyreactivity”.
With “QVQLVESGGGLVQAGRSLRLSCAASGSTFWPNAMGWYRPAPGKERELVAAITSGGRTKYADSVKGRFTISRDNAKNTVYLQMNSLKPEDTAFYYCAKRKGDRGAWIHAYGWEDVDYWGQGTQVTVSS” the entry was “low polyreactivity”.
With “QVQLVESGGGLVQAGRSLRLSCAASGSTIVGYAIGWYRQAPGKDRELVAAISGSGTSTYYADSVKGRFTISRDNAKNTVYLHMISMKPEHTAVYYCIADPIFVYSSYNFWGQGTQVTVSS” the entry was “low polyreactivity”; with “QVQLVESGGGLVQAGRSLRLSCAASGTTFVIYDMGWSRQAPGKERDLVAGNSYSGGSTYYADSVKGRFTISRDNAKNTVYLQMNSLKPEDTAVYYCNAGVLVLLYAYLPSDLEYWGQGTQVTVSS”, “low polyreactivity”.
In the case of “QVQLVESGGGLVQAGRSLRLSCAASGYTFYFYAKGWSRQAPGKDRELVASMTWRGGSPYYADSVKGRFTISRDNAKNTVYLQMNSLKPEETADYYCAKHVYYIYDYWGQGTQVTVSS”, the “polyreactivity (PSR sort gate)” value was “low polyreactivity”.
With “QVQLVESGGGLVQAGRSLRLSCAPSGLTISSNAMGGYRQAPGKERELVAGISRRGGRTYYADSVKGRFTISRDTAKHTVYLQMNSLKPEDTAVYYCAADRVGNSYDYWGQGTQGTVSS” the entry was “high polyreactivity”; with “QVQLVESGGGLVQAGRSLRLSCSASGFSFSFYSMGWYRQAPGKERELVAAISQSGGSTYYADSVKGRFIISLDNAKHTVYLQKNSLKPEDTAVYYCNRGLRRHQSDDYWGQGTQVTVSS”, “high polyreactivity”.
On to “QVQLVESGGGLVQAGRSLRLTCAASGRIFNPYAMGWYRQAPGKERELVAAISRGGRTYYADSVKGRFTISRDNAKNTVYLQMNSLKPEDTAVYYCNAGRGLREDDYWGQGTQVTVSS”, for which the “polyreactivity (PSR sort gate)” value is listed as “low polyreactivity”.
Consider “QVQLVESGGGLVQAGRSNRLSCAASGSLFPDYTMGWYRQAPGQERELVAGSTWNRGGTYYADSVKGRFTISRDNAKNTVYLQMNILKPEDTAVYYCAAEWSGSRSSGAWGPYNYWGQGSQVTVSS”, for which the “polyreactivity (PSR sort gate)” value is reported as “low polyreactivity”.
The entry for “QVQLVESGGGLVQAGRTLRLSCAASGFIFFDNAMGWYRQAPGKERELVAVISSSGTSTYYADAVKGRFTISRDNAKNTVYLQMNSLKPDDTAVYYCNATARTGVYLESDYWGQGTQVTVSS” is “low polyreactivity”; for “QVQLVESGGGLVQAGRTLRLSCAASGSNFSVYVMGWYRQAPGKEWELVAAISWSDSDTYYADSVKGRFTISRDNATNNVYLLMNSLNPEDTAVYYCAAETFDYHDYIANGSGEYDYWGQGNQVTVSS” it is “high polyreactivity”.
With “QVQLVESGGGLVQAGVSLLLSCAASGRTFYANAMGWYSQAPGKEREFVAAISYGTGGTYYADSVKGRFTISRDNAKNTVYLQMNTLKPEDTAVYYCAASLYWGIYGWMGYWGQGTQVTVSS” the entry was “high polyreactivity”; with “QVQLVESGGGLVQAGVSLRISCAPSGRTFIIYAMGRYRQAPGKERELVADISSGGSTYYADSVKGRFKISRDNAKNTVYLHMNSLKPEDTAVYYCAAQSWYYPIGYDYWGLGTQVTVSS”, “low polyreactivity”; with “QVQLVESGGGLVQAGVSLRLICAATGSIFWRKTKGWYRQAPGKEREFVAAISTSGSTYYADSVKGRFTISRDNAKNTVYLKMNSLKPEDTAVYYCAADASRGYQREGGYWGQGTQVTVSS”, “high polyreactivity”.
Regarding “QVQLVESGGGLVQAGVSLRLSCAASGFISDWYAMGWYRQAPGNERELVATLDWIGGSTYADSVKGRFTISRDNAKNTVYFQMNSLKPEDTAVYYCAADSFFIAWYGAHYAYDDWGQGTQVTVSS”, the “polyreactivity (PSR sort gate)” value is “low polyreactivity”.
Take “QVQLVESGGGLVQAGVSLRLSCAASGGTFPKYTMGWYRQAPGKERELVAAITSRGTRTYYADSVKARFTISRDNAKNTVYLQMNSLKTEDTAVYYCAAYFDRHRYDYWGQGTQVTVSS”: the “polyreactivity (PSR sort gate)” value is “high polyreactivity”.
With “QVQLVESGGGLVQAGVSLRLSCAASGITFVNNDMGWYRQAPGKERELVAAISSSGGSTYYADSVKGRFTISRDNAKNTDYLQMNSLKPEDTAVYYCAAPWYNAGRFRYYYWGQGTQVTVSS”, the “polyreactivity (PSR sort gate)” value was “high polyreactivity”.
As to “QVQLVESGGGLVQAGVSLRLSCAASGITIKGNAKGWYRQAPGKERELVAAISRRGGNTYYADSVKGRFTISRDNAKNTVYLQMNSLKPEDTAVYYCAAEYNQSFDYWGQGTQVTVSS”, the “polyreactivity (PSR sort gate)” value was “low polyreactivity”.
“QVQLVESGGGLVQAGVSLRLSCAASGNAMGWYRQAPGKERELVAAITYGGTTTYYADSVKGRFTISRDNAKNTVYLQMNSLKPEDTAVYYCAADFVFVATPLRYDYWGQGTQVTVSS”: the “polyreactivity (PSR sort gate)” value was “low polyreactivity”.
For “QVQLVESGGGLVQAGVSLRLSCAASGNIFRAYAMGWYRQAPGKERELVAAIDTTGGRTYYADSVKGRFTISRDNAKITVYLLMKSLKPEDTAVYYCAVRAPAYPYYRGFDYWGQGSQVTVSS”, the “polyreactivity (PSR sort gate)” value is given as “low polyreactivity”.
The entry for “QVQLVESGGGLVQAGVSLRLSCAASGRIFPGYAMGSDRQAPAKERELVAGITWRTARTYYADSVKGRFTISRDNAKNTVYLQMNSLKPEDTAVYYCAAVSDYEGNYWGQGTQVTVSS” is “high polyreactivity”; for “QVQLVESGGGLVQAGVSLRLSCAASGRTFGYYAMGWYRPAPGKETELVAASTLSGGSTYYADSVKGRFTISRDNAKNTVYLQMNSLKPEYTAVYYCAAKWWHFYPYDYWGQGTQVTVSS” it is “high polyreactivity”.
On to “QVQLVESGGGLVQAGVSLRLSCAASGRTFRFYAMGWYRQAPGKERELVAAITGSGGSTYYADSVKGRFTISRDNAKNTVYLQMNCLKPEDTAVYYCAASRWREYHASKMDYWGQGTQVTVSS”, for which the “polyreactivity (PSR sort gate)” value is given as “low polyreactivity”.
With “QVQLVESGGGLVQAGVSLRLSCAASGRTFRGYAMGWYRQAPGKERELVAAISSGGSTYYADSVKWRFTISRDNSKNTVYLQMNSLKPEDTAVYYCARAVGNYRTLEFDYWGQGTHVTVSS” the entry was “low polyreactivity”; with “QVQLVESGGGLVQAGVSLRLSCAASGSIFSYNAMGWYRQAPGKERELVAAISRCSGSTYYADSVKGRFTISRDIAKNTVYLQMNSLKPEDTAVYYCAGRPKTIPSYYLGYHVRFDYWGQGTQVTVSS”, “low polyreactivity”.

(Values after the nanobody polyreactivity screen of Harvey et al. (2022).)
